In patent publication US20230357348A1 (AstraZeneca / MedImmune, published 2023):
Starred links: 1 amine or outer side, 2 acyl side, 3 side chain; linkers in the order of their positions; H or OH if unused. Non-standard residues stand in square brackets, D forms with d. Groups on a side chain read outwards from the residue. No end group written: not given here. *: point of attachment. C20 diacid = O=C(O)CCCCCCCCCCCCCCCCCCC(=O)*; C18 diacid = O=C(O)CCCCCCCCCCCCCCCCC(=O)*; γGlu = O=C(O)[C@H](CCC(=O)[*:2])N[*:1]; αMeF = C[C@](N)(Cc1ccccc1)C(=O)O; AEEA = NCCOCCOCC(=O)O; Aib = CC(C)(N)C(=O)O

B1: Peptide 488 (peptide)
peptide: H[Aib]QGTFTSDVSK[αMeF]LDTK([AEEA-AEEA-γGlu-C20 diacid])RARDFVQWLL[Aib]TE-OH
modifications: N-terminus assumed
SMILES: CC(C)C[C@H](NC(=O)[C@H](Cc1c[nH]c2ccccc12)NC(=O)[C@H](CCC(N)=O)NC(=O)[C@@H](NC(=O)[C@H](Cc1ccccc1)NC(=O)[C@H](CC(=O)O)NC(=O)[C@H](CCCNC(=N)N)NC(=O)[C@H](C)NC(=O)[C@H](CCCNC(=N)N)NC(=O)[C@H](CCCCNC(=O)COCCOCCNC(=O)COCCOCCNC(=O)CC[C@H](NC(=O)CCCCCCCCCCCCCCCCCCC(=O)O)C(=O)O)NC(=O)[C@@H](NC(=O)[C@H](CC(=O)O)NC(=O)[C@H](CC(C)C)NC(=O)[C@](C)(Cc1ccccc1)NC(=O)[C@H](CCCCN)NC(=O)[C@H](CO)NC(=O)[C@@H](NC(=O)[C@H](CC(=O)O)NC(=O)[C@H](CO)NC(=O)[C@@H](NC(=O)[C@H](Cc1ccccc1)NC(=O)[C@@H](NC(=O)CNC(=O)[C@H](CCC(N)=O)NC(=O)C(C)(C)NC(=O)[C@@H](N)Cc1c[nH]cn1)[C@@H](C)O)[C@@H](C)O)C(C)C)[C@@H](C)O)C(C)C)C(=O)N[C@@H](CC(C)C)C(=O)NC(C)(C)C(=O)N[C@H](C(=O)N[C@@H](CCC(=O)O)C(=O)O)[C@@H](C)O
B2: Peptide 489 (peptide)
peptide: H[Aib]QGTFTSDVSK[αMeF]LDTK([AEEA-AEEA-γGlu-C18 diacid])RARDFVQWLL[Aib]TE-NH2
modifications: N-terminus assumed
SMILES: CC(C)C[C@H](NC(=O)[C@H](Cc1c[nH]c2ccccc12)NC(=O)[C@H](CCC(N)=O)NC(=O)[C@@H](NC(=O)[C@H](Cc1ccccc1)NC(=O)[C@H](CC(=O)O)NC(=O)[C@H](CCCNC(=N)N)NC(=O)[C@H](C)NC(=O)[C@H](CCCNC(=N)N)NC(=O)[C@H](CCCCNC(=O)COCCOCCNC(=O)COCCOCCNC(=O)CC[C@H](NC(=O)CCCCCCCCCCCCCCCCC(=O)O)C(=O)O)NC(=O)[C@@H](NC(=O)[C@H](CC(=O)O)NC(=O)[C@H](CC(C)C)NC(=O)[C@](C)(Cc1ccccc1)NC(=O)[C@H](CCCCN)NC(=O)[C@H](CO)NC(=O)[C@@H](NC(=O)[C@H](CC(=O)O)NC(=O)[C@H](CO)NC(=O)[C@@H](NC(=O)[C@H](Cc1ccccc1)NC(=O)[C@@H](NC(=O)CNC(=O)[C@H](CCC(N)=O)NC(=O)C(C)(C)NC(=O)[C@@H](N)Cc1c[nH]cn1)[C@@H](C)O)[C@@H](C)O)C(C)C)[C@@H](C)O)C(C)C)C(=O)N[C@@H](CC(C)C)C(=O)NC(C)(C)C(=O)N[C@H](C(=O)N[C@@H](CCC(=O)O)C(N)=O)[C@@H](C)O
B3: Peptide 490 (peptide)
peptide: H[Aib]QGTFTSDVSK[αMeF]LDTK([AEEA-AEEA-γGlu-C20 diacid])RARDFVQWLL[Aib]TE-NH2
modifications: N-terminus assumed
SMILES: CC(C)C[C@H](NC(=O)[C@H](Cc1c[nH]c2ccccc12)NC(=O)[C@H](CCC(N)=O)NC(=O)[C@@H](NC(=O)[C@H](Cc1ccccc1)NC(=O)[C@H](CC(=O)O)NC(=O)[C@H](CCCNC(=N)N)NC(=O)[C@H](C)NC(=O)[C@H](CCCNC(=N)N)NC(=O)[C@H](CCCCNC(=O)COCCOCCNC(=O)COCCOCCNC(=O)CC[C@H](NC(=O)CCCCCCCCCCCCCCCCCCC(=O)O)C(=O)O)NC(=O)[C@@H](NC(=O)[C@H](CC(=O)O)NC(=O)[C@H](CC(C)C)NC(=O)[C@](C)(Cc1ccccc1)NC(=O)[C@H](CCCCN)NC(=O)[C@H](CO)NC(=O)[C@@H](NC(=O)[C@H](CC(=O)O)NC(=O)[C@H](CO)NC(=O)[C@@H](NC(=O)[C@H](Cc1ccccc1)NC(=O)[C@@H](NC(=O)CNC(=O)[C@H](CCC(N)=O)NC(=O)C(C)(C)NC(=O)[C@@H](N)Cc1c[nH]cn1)[C@@H](C)O)[C@@H](C)O)C(C)C)[C@@H](C)O)C(C)C)C(=O)N[C@@H](CC(C)C)C(=O)NC(C)(C)C(=O)N[C@H](C(=O)N[C@@H](CCC(=O)O)C(N)=O)[C@@H](C)O
B4: Peptide 491 (peptide)
peptide: H[Aib]QGTFTSDVSK[αMeF]LDTK([AEEA-AEEA-γGlu-C18 diacid])RARDFVRWLL[Aib]TE-OH
modifications: N-terminus assumed
SMILES: CC(C)C[C@H](NC(=O)[C@H](Cc1c[nH]c2ccccc12)NC(=O)[C@H](CCCNC(=N)N)NC(=O)[C@@H](NC(=O)[C@H](Cc1ccccc1)NC(=O)[C@H](CC(=O)O)NC(=O)[C@H](CCCNC(=N)N)NC(=O)[C@H](C)NC(=O)[C@H](CCCNC(=N)N)NC(=O)[C@H](CCCCNC(=O)COCCOCCNC(=O)COCCOCCNC(=O)CC[C@H](NC(=O)CCCCCCCCCCCCCCCCC(=O)O)C(=O)O)NC(=O)[C@@H](NC(=O)[C@H](CC(=O)O)NC(=O)[C@H](CC(C)C)NC(=O)[C@](C)(Cc1ccccc1)NC(=O)[C@H](CCCCN)NC(=O)[C@H](CO)NC(=O)[C@@H](NC(=O)[C@H](CC(=O)O)NC(=O)[C@H](CO)NC(=O)[C@@H](NC(=O)[C@H](Cc1ccccc1)NC(=O)[C@@H](NC(=O)CNC(=O)[C@H](CCC(N)=O)NC(=O)C(C)(C)NC(=O)[C@@H](N)Cc1c[nH]cn1)[C@@H](C)O)[C@@H](C)O)C(C)C)[C@@H](C)O)C(C)C)C(=O)N[C@@H](CC(C)C)C(=O)NC(C)(C)C(=O)N[C@H](C(=O)N[C@@H](CCC(=O)O)C(=O)O)[C@@H](C)O
B5: Peptide 492 (peptide)
peptide: H[Aib]QGTFTSDVSK[αMeF]LDTK([AEEA-AEEA-γGlu-C20 diacid])RARDFVRWLL[Aib]TE-OH
modifications: N-terminus assumed
SMILES: CC(C)C[C@H](NC(=O)[C@H](Cc1c[nH]c2ccccc12)NC(=O)[C@H](CCCNC(=N)N)NC(=O)[C@@H](NC(=O)[C@H](Cc1ccccc1)NC(=O)[C@H](CC(=O)O)NC(=O)[C@H](CCCNC(=N)N)NC(=O)[C@H](C)NC(=O)[C@H](CCCNC(=N)N)NC(=O)[C@H](CCCCNC(=O)COCCOCCNC(=O)COCCOCCNC(=O)CC[C@H](NC(=O)CCCCCCCCCCCCCCCCCCC(=O)O)C(=O)O)NC(=O)[C@@H](NC(=O)[C@H](CC(=O)O)NC(=O)[C@H](CC(C)C)NC(=O)[C@](C)(Cc1ccccc1)NC(=O)[C@H](CCCCN)NC(=O)[C@H](CO)NC(=O)[C@@H](NC(=O)[C@H](CC(=O)O)NC(=O)[C@H](CO)NC(=O)[C@@H](NC(=O)[C@H](Cc1ccccc1)NC(=O)[C@@H](NC(=O)CNC(=O)[C@H](CCC(N)=O)NC(=O)C(C)(C)NC(=O)[C@@H](N)Cc1c[nH]cn1)[C@@H](C)O)[C@@H](C)O)C(C)C)[C@@H](C)O)C(C)C)C(=O)N[C@@H](CC(C)C)C(=O)NC(C)(C)C(=O)N[C@H](C(=O)N[C@@H](CCC(=O)O)C(=O)O)[C@@H](C)O
B6: Peptide 493 (peptide)
peptide: H[Aib]QGTFTSDVSK[αMeF]LDTK([AEEA-AEEA-γGlu-C18 diacid])RAQDFVRWLLR[Aib]K-OH
modifications: N-terminus assumed
SMILES: CC(C)C[C@H](NC(=O)[C@H](Cc1c[nH]c2ccccc12)NC(=O)[C@H](CCCNC(=N)N)NC(=O)[C@@H](NC(=O)[C@H](Cc1ccccc1)NC(=O)[C@H](CC(=O)O)NC(=O)[C@H](CCC(N)=O)NC(=O)[C@H](C)NC(=O)[C@H](CCCNC(=N)N)NC(=O)[C@H](CCCCNC(=O)COCCOCCNC(=O)COCCOCCNC(=O)CC[C@H](NC(=O)CCCCCCCCCCCCCCCCC(=O)O)C(=O)O)NC(=O)[C@@H](NC(=O)[C@H](CC(=O)O)NC(=O)[C@H](CC(C)C)NC(=O)[C@](C)(Cc1ccccc1)NC(=O)[C@H](CCCCN)NC(=O)[C@H](CO)NC(=O)[C@@H](NC(=O)[C@H](CC(=O)O)NC(=O)[C@H](CO)NC(=O)[C@@H](NC(=O)[C@H](Cc1ccccc1)NC(=O)[C@@H](NC(=O)CNC(=O)[C@H](CCC(N)=O)NC(=O)C(C)(C)NC(=O)[C@@H](N)Cc1c[nH]cn1)[C@@H](C)O)[C@@H](C)O)C(C)C)[C@@H](C)O)C(C)C)C(=O)N[C@@H](CC(C)C)C(=O)N[C@@H](CCCNC(=N)N)C(=O)NC(C)(C)C(=O)N[C@@H](CCCCN)C(=O)O
B7: Peptide 494 (peptide)
peptide: H[Aib]QGTFTSDVSK[αMeF]LDTK([AEEA-AEEA-γGlu-C20 diacid])RAQDFVRWLLR[Aib]K-OH
B8: Peptide 495 (peptide)
peptide: H[Aib]QGTFTSDVSK[αMeF]LDTK([AEEA-AEEA-γGlu-C18 diacid])RAQDFVRWLLR[Aib]K-NH2
modifications: N-terminus assumed
SMILES: CC(C)C[C@H](NC(=O)[C@H](Cc1c[nH]c2ccccc12)NC(=O)[C@H](CCCNC(=N)N)NC(=O)[C@@H](NC(=O)[C@H](Cc1ccccc1)NC(=O)[C@H](CC(=O)O)NC(=O)[C@H](CCC(N)=O)NC(=O)[C@H](C)NC(=O)[C@H](CCCNC(=N)N)NC(=O)[C@H](CCCCNC(=O)COCCOCCNC(=O)COCCOCCNC(=O)CC[C@H](NC(=O)CCCCCCCCCCCCCCCCC(=O)O)C(=O)O)NC(=O)[C@@H](NC(=O)[C@H](CC(=O)O)NC(=O)[C@H](CC(C)C)NC(=O)[C@](C)(Cc1ccccc1)NC(=O)[C@H](CCCCN)NC(=O)[C@H](CO)NC(=O)[C@@H](NC(=O)[C@H](CC(=O)O)NC(=O)[C@H](CO)NC(=O)[C@@H](NC(=O)[C@H](Cc1ccccc1)NC(=O)[C@@H](NC(=O)CNC(=O)[C@H](CCC(N)=O)NC(=O)C(C)(C)NC(=O)[C@@H](N)Cc1c[nH]cn1)[C@@H](C)O)[C@@H](C)O)C(C)C)[C@@H](C)O)C(C)C)C(=O)N[C@@H](CC(C)C)C(=O)N[C@@H](CCCNC(=N)N)C(=O)NC(C)(C)C(=O)N[C@@H](CCCCN)C(N)=O

How the values were obtained:
[1] = biological target: human GLP-1 receptor (hGLP-1R) (human, UniProt P43220 24-463); assay: cell-based or functional assay
[2] = biological target: human glucagon receptor (hGCGR) (human, UniProt P47871 26-477); assay: cell-based or functional assay
Chain of human glucagon receptor (hGCGR) (P47871 26-477): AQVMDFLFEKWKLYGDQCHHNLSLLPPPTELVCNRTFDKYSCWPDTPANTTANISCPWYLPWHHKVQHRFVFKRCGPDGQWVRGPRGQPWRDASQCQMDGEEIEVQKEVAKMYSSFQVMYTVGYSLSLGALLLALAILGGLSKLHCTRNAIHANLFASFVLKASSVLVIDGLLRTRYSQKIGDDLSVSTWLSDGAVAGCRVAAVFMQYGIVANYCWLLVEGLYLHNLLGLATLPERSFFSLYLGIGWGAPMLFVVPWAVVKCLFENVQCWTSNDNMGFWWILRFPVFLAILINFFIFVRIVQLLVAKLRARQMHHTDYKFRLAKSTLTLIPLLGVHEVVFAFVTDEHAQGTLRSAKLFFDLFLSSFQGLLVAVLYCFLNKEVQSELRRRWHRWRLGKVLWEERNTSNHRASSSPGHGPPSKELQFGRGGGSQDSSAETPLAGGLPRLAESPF

Binder	hGLP-1R EC50 (pM) [1]	hGluc-R EC50 (pM) [2]
B1	202 pM	301 pM
B2	22.8 pM	168 pM
B3	69 pM	396 pM
B4	73.6 pM	232 pM
B5	212 pM	374 pM
B6	23.4 pM	166 pM
B7	98.7 pM	212 pM
B8	23.2 pM	380 pM
